This passage reports TF/cell in the absence of competitor and cpm bound in the absence of competitor results from patent US20050054043A1.

For this assay, the target named is transferrin receptor on HeLa S3 cells (human) (UniProt P02786). As to the kind of experiment: radioiodinated transferrin on HeLa S3 cells, no competitor.
Chain of transferrin receptor on HeLa S3 cells (human) (P02786 whole entry): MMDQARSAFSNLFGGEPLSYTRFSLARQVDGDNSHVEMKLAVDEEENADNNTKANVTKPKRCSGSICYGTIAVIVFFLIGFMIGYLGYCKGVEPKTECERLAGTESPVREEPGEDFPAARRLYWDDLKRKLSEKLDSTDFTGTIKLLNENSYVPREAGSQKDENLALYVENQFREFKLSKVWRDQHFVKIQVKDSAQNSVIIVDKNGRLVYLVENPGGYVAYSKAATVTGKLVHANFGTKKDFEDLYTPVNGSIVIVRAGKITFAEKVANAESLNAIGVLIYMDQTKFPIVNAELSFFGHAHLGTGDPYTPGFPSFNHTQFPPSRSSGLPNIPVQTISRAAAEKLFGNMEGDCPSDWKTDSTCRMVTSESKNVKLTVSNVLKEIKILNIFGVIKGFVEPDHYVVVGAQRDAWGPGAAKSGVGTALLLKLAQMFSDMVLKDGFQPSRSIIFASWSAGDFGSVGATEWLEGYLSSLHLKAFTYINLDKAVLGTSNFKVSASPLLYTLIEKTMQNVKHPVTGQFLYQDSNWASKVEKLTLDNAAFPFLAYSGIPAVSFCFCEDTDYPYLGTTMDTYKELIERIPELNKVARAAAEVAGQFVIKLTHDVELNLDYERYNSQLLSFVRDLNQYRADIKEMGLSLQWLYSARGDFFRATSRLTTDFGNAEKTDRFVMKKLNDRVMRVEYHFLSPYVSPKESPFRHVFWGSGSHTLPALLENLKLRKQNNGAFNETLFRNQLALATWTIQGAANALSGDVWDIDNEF

The substance radiolabeled diferric transferrin came in with a TF/cell in the absence of competitor of 328000 TF/cell and a cpm bound in the absence of competitor of 7480 cpm.
